Test results as given in the supplement of paper PMC7125110.
± gives the standard error. Variants at the floor of the assay were thinned out.

B1: glmS ribozyme (parent)
chain: AUAAAAGCGCCAGAACUACAGAAAUGUAGUUGACGAGGAGGAGGUUUAUCGAAUUUUCGGCGGAUGCCUCCAAA

Variants of: B1
Assay: self-cleavage kobs at 2500 uM GlcN6P; higher = faster cleavage; RNA array
Conditions: with glucosamine-6-phosphate
In short: (§1)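 The measurements used barcoded ribozyme variants on sequenced MiSeq chips, transcribed in situ by E. coli RNA polymerase and tracked at 37 °C with a hybridised Cy3 probe. Glucosamine-6-phosphate, 40 μM to 10 mM in HEPES/KCl/Mg(OAc)2 buffer, was flowed in while tiles were imaged over ~14 h. Baseline-normalised signals, also normalised to non-cleaving reference variants, gave per-tile medians that were fit to one- or two-exponential decays for kobs. kcat and KM resulted from weighted Michaelis–Menten fits across concentrations.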

Variant | self-cleavage kobs at 2500 uM GlcN6P
A14U A33U A36C | < 1e-05 s⁻¹
G9U U31A C67A C70U | < 1e-05 s⁻¹
G44C C58G G63A C67G | < 1e-05 s⁻¹
U30G A64G C67G | 6.44e-05 ± 3e-05 s⁻¹
A14U G43U C68G | 0.0033 ± 0.00062 s⁻¹
G44U A52G C67U U69G | < 1e-05 s⁻¹
C10G G13C A14G U31C U47A | < 1e-05 s⁻¹
G13C G37U C58U G60A | < 1e-05 s⁻¹
A12G G63A | < 1e-05 s⁻¹
A39G G41U A42G | 0.000339 ± 9.9e-05 s⁻¹
C8U U55G U65G | < 1e-05 s⁻¹
C10U G32A C70U | 6.3e-05 ± 3e-05 s⁻¹
A39U G41U U46A | 4.67e-05 ± 1.4e-05 s⁻¹
U30C G35U U65C | < 1e-05 s⁻¹
G43C G51C G59U | < 1e-05 s⁻¹
A6U C16U A53G C71G | 5.25e-05 ± 2.3e-05 s⁻¹
C8A C11U C70U | < 1e-05 s⁻¹
G9U C16A A42C U54A A64G C70U | < 1e-05 s⁻¹
C50A U56G C70A | 8.66e-05 ± 2.8e-05 s⁻¹
U46C G60U G62U G63C | < 1e-05 s⁻¹
U46G A48G U49G G59A | < 1e-05 s⁻¹
A42U U45C U55A | 6.42e-05 ± 1.1e-05 s⁻¹
C8A C10G A39C | < 1e-05 s⁻¹
C11A C34G U49A | < 1e-05 s⁻¹
C8A C10U A39G U57C | < 1e-05 s⁻¹
U31C U49C U65G | < 1e-05 s⁻¹
A15U G41C | 2.7e-05 ± 1.2e-05 s⁻¹

Variant | self-cleavage kobs at 2500 uM GlcN6P
A12U G44C C61G | < 1e-05 s⁻¹
G7A G38C A64C | < 1e-05 s⁻¹
A14U G66A C70U | 0.00125 ± 0.00031 s⁻¹
G13U U30G G32C | 4.58e-05 ± 1.5e-05 s⁻¹
G41A A48U U57C G60A C61U C67U C71G | < 1e-05 s⁻¹
G7U A12G U69A | < 1e-05 s⁻¹
U46A C67G C68U | 0.000113 ± 5.1e-05 s⁻¹
A39G U55G C71U | 0.00336 ± 0.0015 s⁻¹
C11U C16U C61U | < 1e-05 s⁻¹
A39G A42U U55G U57C G62A | < 1e-05 s⁻¹
G43A G59C C68G | < 1e-05 s⁻¹
A42G C61A C70A | < 1e-05 s⁻¹
G40A U54G U69A | < 1e-05 s⁻¹
G13U A36C A42G C58U | < 1e-05 s⁻¹
A6U A36C U55G | < 1e-05 s⁻¹
G43A G44C U54G | < 1e-05 s⁻¹
G9U A12C A14C A48G U49A | < 1e-05 s⁻¹
G37A G38A A39C | < 1e-05 s⁻¹
C19A G44A | 0.000112 ± 4e-05 s⁻¹
U55A U56A G66C | 0.000134 ± 3.4e-05 s⁻¹
U47G U57C C68A | 8.58e-05 ± 3.6e-05 s⁻¹
C50G U55C | 3.57e-05 ± 1.6e-05 s⁻¹
A15G U46G G51C U55C G59A G63U | < 1e-05 s⁻¹
A6G U55C C71A | < 1e-05 s⁻¹
A12C A52U C67U | 0.000185 ± 4.2e-05 s⁻¹
G7C C11A C16U | < 1e-05 s⁻¹
A12G G32U A36U U49A C50G | < 1e-05 s⁻¹

Variant | self-cleavage kobs at 2500 uM GlcN6P
G44U U57A C71A | < 1e-05 s⁻¹
C10G G32U G62U U65G | < 1e-05 s⁻¹
U30A G32C C34G U55A | < 1e-05 s⁻¹
C10G C34U G37U A42G | < 1e-05 s⁻¹
U57C C58A C67G | 0.000113 ± 5.6e-05 s⁻¹
C16A U31A A39G U57C G60U | < 1e-05 s⁻¹
A6C G13A A39C C67U C70G | < 1e-05 s⁻¹
G13C A15U C61G | < 1e-05 s⁻¹
A6C G9C G35A A52G C68U | < 1e-05 s⁻¹
A6U G32C C34G U55G U56A | < 1e-05 s⁻¹
U30G U46C C68U | 8.16e-05 ± 1.7e-05 s⁻¹
G7A G13A C68A | < 1e-05 s⁻¹
A6G G38A G40A G60C | < 1e-05 s⁻¹
G9A A14C G43U U46A | < 1e-05 s⁻¹
A33C G38A C58U U65C | < 1e-05 s⁻¹
G44C U49A G60A G66U | < 1e-05 s⁻¹
A14U A15U G40U | 0.000122 ± 3.7e-05 s⁻¹
A12C A15U G43C G51A | < 1e-05 s⁻¹
A6G G38A C50G U57G C68U | 8.04e-05 ± 1.4e-05 s⁻¹
A33G U47A A52C C70A | < 1e-05 s⁻¹
A15U U45A U57C | 4.29e-05 ± 1.9e-05 s⁻¹
C11G G60C G63C | < 1e-05 s⁻¹
A14C U30G C58G | 5.75e-05 ± 2.4e-05 s⁻¹
A12U U54A G60C U65A | < 1e-05 s⁻¹
C8A C10U G32A A48G | < 1e-05 s⁻¹
G9U C16U A33U | < 1e-05 s⁻¹

Variants of: B1
Assay: self-cleavage kobs at 10000 uM GlcN6P; higher = faster cleavage; RNA array
Conditions: with glucosamine-6-phosphate
In short: as §1

Variant | self-cleavage kobs at 10000 uM GlcN6P
A12G G63A | < 1e-05 s⁻¹
C8U U55G U65G | < 1e-05 s⁻¹
A39U G41U U46A | 0.000135 ± 2.6e-05 s⁻¹
U30G U46C C68U | 0.000214 ± 5.2e-05 s⁻¹
A6G G38A G40A G60C | < 1e-05 s⁻¹
A14U A15U G40U | 0.000149 ± 2.6e-05 s⁻¹
C11G G60C G63C | < 1e-05 s⁻¹
